The target of one experiment is XPL2-BC-3A9-hIgG1. Nature of the experiment: Biacore. (In general: SPR reads the build-up and loss of mass on a sensor chip optically.)
For the next experiment, the target named is XPL2-BC-8H8-hIgG1. Put plainly: Biacore.
The target in another experiment is XPL2-BC-1E12-hIgG1. Put plainly: Biacore.
The target of another experiment is XPL2-BC-16G11-hIgG1. Put plainly: Biacore.
For the next experiment, the target named is XPL2-BC-13G1-hIgG1. Nature of the experiment: Biacore.
A further experiment has as its target XPL2-BC-8G2-hIgG1. Nature of the experiment: Biacore.
Another experiment addresses XPL2-BC-12A11-hIgG1. Nature of the experiment: Biacore.
The target of a further experiment is XPL2-BC-10H5-hIgG1. Nature of the experiment: Biacore.
Another experiment has as its target XPL2-BC-8G5-hIgG1. Put plainly: Biacore.
Another experiment concerns the target XPL2-BC-5B6-hIgG1. Nature of the experiment: Biacore.
The target in a further experiment is XPL2-BC-12B9-hIgG1. Nature of the experiment: Biacore.
A further experiment concerns the target XPL2-BC-7D1-hIgG1. Put plainly: Biacore.
In another experiment the target is XPL2-BC-12B2-hIgG1. Nature of the experiment: Biacore.
Another experiment addresses XPL2-BC-7B10-hIgG1. Put plainly: Biacore.
The next experiment has as its target XPL2-BC-9H4-hIgG1. Nature of the experiment: Biacore.
Another experiment concerns the target XPL2-BC-12A6-hIgG1. Nature of the experiment: Biacore.
Another experiment concerns the target XPL2-BC-5C11-hIgG1. Nature of the experiment: Biacore.
The target in a further experiment is XPL2-BC-7D3-hIgG1. Put plainly: Biacore.
The target of the next experiment is XPL2-BC-8H11-hIgG1. Nature of the experiment: Biacore.
Another experiment has as its target XPL2-BC-5F2-hIgG1. Nature of the experiment: Biacore.
The target of another experiment is XPL2-BC-12B7-hIgG1. Nature of the experiment: Biacore.
The target in a further experiment is XPL2-BC-12B12-hIgG1. Nature of the experiment: Biacore.
Another experiment concerns the target XPL2-BC-8F4-hIgG1. Nature of the experiment: Biacore.
Another experiment deals with XPL2-BC-7E9-hIgG1. Put plainly: Biacore.
A further experiment deals with XPL2-BC-6H10-hIgG1. Put plainly: Biacore.
The target in another experiment is XPL2-BC-5F1-hIgG1. Put plainly: Biacore.
For another experiment, the target named is XPL2-BC-1G10-hIgG1. Nature of the experiment: Biacore.
A further experiment concerns the target Human PDL1 (human, UniProt Q9NZQ7 19-238). Nature of the experiment: Biacore; EXP1.
In a further experiment the target is Cyno PDL1. Nature of the experiment: Biacore; EXP1.
The target in a further experiment is human CD28 antigen (human, UniProt P10747 19-152). Put plainly: Octet; VHVL. (BLI is a label-free optical method that tracks binding on a fibre tip over time.)

B1: PDL2 (ligand)
chain: LFTVTVPKELYIIEHGSNVTLECNFDTGSHVNLGAITASLQKVENDTSPHRERATLLEEQLPLGKASFHIPQVQVRDEGQYQCIIIYGVAWDYKYLTLKVKASYRKINTHILKVPETDEVELTCQATGYPLAEVSWPNVSVPANTSHSRTPEGLYQVTSVLRLKPPPGRNFSCVFWNTHVRELTLASIDLQSQMEPRTHPT
Usually Kd stands for the constant that tells how readily two partners part at equilibrium. On to B1, for which the Kd was 192 nM with XPL2-BC-3A9-hIgG1; 3.75 nM with XPL2-BC-8H8-hIgG1; 80.7 nM with XPL2-BC-1E12-hIgG1; 0.491 nM in the experiment with XPL2-BC-16G11-hIgG1; 5.1 nM in the experiment with XPL2-BC-13G1-hIgG1; 0.39 nM in the experiment with XPL2-BC-8G2-hIgG1. Moreover, the Kd in the experiment with XPL2-BC-12A11-hIgG1 amounted to 21.8 nM; with XPL2-BC-10H5-hIgG1, 64.9 nM; with XPL2-BC-8G5-hIgG1, 1.09 nM; with XPL2-BC-5B6-hIgG1, 0.765 nM; with XPL2-BC-12B9-hIgG1, 5.88 nM; in the experiment with XPL2-BC-7D1-hIgG1, 5.66 nM. Moreover, the Kd came out at 15.1 nM with XPL2-BC-12B2-hIgG1; 1.77 nM with XPL2-BC-7B10-hIgG1; 73.2 nM with XPL2-BC-9H4-hIgG1; 303 nM with XPL2-BC-12A6-hIgG1; 1.77 nM with XPL2-BC-5C11-hIgG1; 1.49 nM with XPL2-BC-7D3-hIgG1. In addition, the Kd in the experiment with XPL2-BC-8H11-hIgG1 turned out to be 0.525 nM; with XPL2-BC-5F2-hIgG1, 11.6 nM; with XPL2-BC-12B7-hIgG1, 8.44 nM; in the experiment with XPL2-BC-12B12-hIgG1, 73.7 nM; with XPL2-BC-8F4-hIgG1 it was 7.13 nM; with XPL2-BC-7E9-hIgG1, 0.25 nM. Further, the figures for the Kd in the experiment with XPL2-BC-6H10-hIgG1, with XPL2-BC-5F1-hIgG1 and in the experiment with XPL2-BC-1G10-hIgG1 were 6.02 nM, 12.5 nM and 5.87 nM, respectively.

B2: XENP 37559 (H1L1) (bispecific antibody)
chain 1: EVQLLESGGGLVQPGGSLRLSCAASGFTFSSYDMSWVRQAPGKRLEWVSTISSGGSFTHYPDSVKGRFTISRDNSKNTLYLQMNSLRAEDTAVYYCVRRSGDWYFDVWGAGTTVTVSSASTKGPSVFPLAPSSKSTSGGTAALGCLVKDYFPEPVTVSWNSGALTSGVHTFPAVLQSSGLYSLSSVVTVPSSSLGTQTYICNVNHKPSDTKVDKKVEPKSCDKTHTCPPCPAPPVAGPSVFLFPPKPKDTLMISRTPEVTCVVVDVKHEDPEVKFNWYVDGVEVHNAKTKPREEEYNSTYRVVSVLTVLHQDWLNGKEYKCKVSNKALPAPIEKTISKAKGQPREPQVYTLPPSREEMTKNQVSLTCDVSGFYPSDIAVEWESDGQPENNYKTTPPVLDSDGSFFLYSKLTVDKSRWEQGDVFSCSVMHEALHNHYTQKSLSLSPGK
chain 2: not shown
chain 3: EIVLTQSPGTLSLSPGERATLSCRVSSSISSSNLHWYQQKPGQSPRPLIYGTSNLASGVPVRFSGSGSGTDYTLTISRLEPEDFAVYYCQQWSSYPLYTFGGGTKVEIKRTVAAPSVFIFPPSDEQLKSGTASVVCLLNNFYPREAKVQWKVDNALQSGNSQESVTEQDSKDSTYSLSSTLTLSKADYEKHKVYACEVTHQGLSSPVTKSFNRGEC
B2: the values for the Kd with Human PDL1 and with Cyno PDL1 were 2.6 nM and 2.2 nM, respectively.

B3: H1.1_L1.71 (antibody, V domains shown)
VH: EVQLLESGGGLVQPGGSLRLSCAASGFTFPSRDMSWVRQAPGKRLEWVSTISSGGSFTHYPDSVKGRFTISRDNSKNTLYLQMNSLRAEDTAVYYCVRRSGDWYFDVWGAGTTVTVSS
VL: EIVLTQSPGTLSLSPGERATLSCRVSSSIQSTNLHWYQQKPGQSPRPLIYGTSTLATGVPVRFSGSGSGTDYTLTISRLEPEDFAVYYCQQWSSYPLYTFGGGTKVEIK
The molecule B3 yielded a Kd in the experiment with human CD28 antigen of 96 nM. This counts as double-digit nanomolar.

B4: H1_L1.71 (antibody, V domains shown)
VH: EVQLLESGGGLVQPGGSLRLSCAASGFTFSSYDMSWVRQAPGKRLEWVSTISSGGSFTHYPDSVKGRFTISRDNSKNTLYLQMNSLRAEDTAVYYCVRRSGDWYFDVWGAGTTVTVSS
VL: EIVLTQSPGTLSLSPGERATLSCRVSSSIQSTNLHWYQQKPGQSPRPLIYGTSTLATGVPVRFSGSGSGTDYTLTISRLEPEDFAVYYCQQWSSYPLYTFGGGTKVEIK
Molecule B4 returned a Kd in the experiment with human CD28 antigen of 180 nM.

B5: H1L1 (antibody, V domains shown)
VH: EVQLLESGGGLVQPGGSLRLSCAASGFTFSSYDMSWVRQAPGKRLEWVSTISSGGSFTHYPDSVKGRFTISRDNSKNTLYLQMNSLRAEDTAVYYCVRRSGDWYFDVWGAGTTVTVSS
VL: EIVLTQSPGTLSLSPGERATLSCRVSSSISSSNLHWYQQKPGQSPRPLIYGTSNLASGVPVRFSGSGSGTDYTLTISRLEPEDFAVYYCQQWSSYPLYTFGGGTKVEIK
In turn, B5 displayed a Kd with human CD28 antigen of 1000 nM.

B6: H1.1_L1 (antibody, V domains shown)
VH: EVQLLESGGGLVQPGGSLRLSCAASGFTFPSRDMSWVRQAPGKRLEWVSTISSGGSFTHYPDSVKGRFTISRDNSKNTLYLQMNSLRAEDTAVYYCVRRSGDWYFDVWGAGTTVTVSS
VL: EIVLTQSPGTLSLSPGERATLSCRVSSSISSSNLHWYQQKPGQSPRPLIYGTSNLASGVPVRFSGSGSGTDYTLTISRLEPEDFAVYYCQQWSSYPLYTFGGGTKVEIK
Take B6: the affinity in the experiment with human CD28 antigen, expressed as Kd, was 600 nM.

Values taken from patent US20230383012A1 (published 2023).
